Laboratory results from patent US20140234868A1, “USE FOR GLYCOLIPOPROTEIN GINTONIN, ISOLATED AND IDENTIFIED FROM GINSENG, AS A NATURAL MEDICAL-PLANT DERIVED LIGAND” (KONKUK UNIVERSITY INDUSTRIAL COOPERATION CORP., priority 2011, published 2014).

T1: LPA3 receptor (wild-type) (human) (UniProt Q9UBY5)
T1 sequence (looked up): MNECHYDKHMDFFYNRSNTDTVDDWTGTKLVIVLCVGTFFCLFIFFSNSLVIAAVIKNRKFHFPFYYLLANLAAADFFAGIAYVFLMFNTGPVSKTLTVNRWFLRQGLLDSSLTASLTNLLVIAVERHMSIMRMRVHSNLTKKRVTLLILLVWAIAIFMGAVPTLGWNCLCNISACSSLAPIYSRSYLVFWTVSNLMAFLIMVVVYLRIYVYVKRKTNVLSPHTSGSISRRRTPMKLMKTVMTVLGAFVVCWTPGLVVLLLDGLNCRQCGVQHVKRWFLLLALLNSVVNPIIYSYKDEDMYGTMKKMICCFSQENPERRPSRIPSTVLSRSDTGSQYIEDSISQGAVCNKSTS

B1: glycolipoprotein gintonin isolated from ginseng (ligand)
chain 1: MGLTGKLICQTGIKSDGDVFHELFGTRPHHVPNITPANIQGCDLHEGEFGKVGSVVIWNYSIDGNAMIAKEEIVAIDEEDKSVTFKVVEGHLFEEFKSIVFSVHVDTKGEDNLVTWSIDYEKLNESVKDPTSYLDFLLSVTRDIEAHHLPK
chain 2: RSDYPWAMFALRLQWPAGFCEVNNACDTKSLLNTFTIHGLYPYNAKGTPALYCDGTAFDVNSVSDFLAEMHLAWPSHETNTEDIQFWEHEWKKHGRCSEALLKQTDYFRTALAFRKAFDIVGLLNQEGIYPNNDLYRPKMIKEAIKKHLNAVPEIDFTKNENSEYVLTDINVCVNQQATRFVDCPTDDATDDYRLKFVRLPSKMKFADPRTNSII
modifications: three N-glycosylation sites (positions not numbered in the text); bound sugars and lipids

Tests used:
LPA receptor = assay: Gintonin-induced intracellular Ca2+ increase in LPA receptor-expressing B103 cells (subtype not named); format: cell-based, human; details: pretreated
Text: Optionally, the method may further comprise (8) pre-treating the suspended B103 cells with LPA receptor antagonists and LPA receptor-mediated signaling-relevant drugs (e.g., pertussis toxin, PLC inhibitors, IP3 receptor antagonists) to examine whether the cells decrease or increase in intracellular free Ca^2+, prior to treatment with gintonin; (9) performing site-directed mutagenesis to identify an amino acid of LPA receptors with which gintonin interact to activate the LPA; and (10) examining whether gintonin activates orphan GPCRs including GPR35 and GPR87, and free fatty acid GPCRs including GPR40, GPR41, GPR43 and GPR120, all known for activation by LPA.
In this Example, gintonin, or ginsenoside Rb1 or Rg1 was examined for its ability to induce a transient increase of [Ca^2+]i in Fura-2AM-loaded B103 cells which were transfected with LPA receptors and in Fura-2AM-loaded B103 cells which were not transfected with LPA receptors. […]
Briefly, Fura 2-AM loaded cells were diluted with an experimental medium to a final density of 2˜4×10^6 cells/mL, and transferred to polystyrene cuvettes (Elkay Ultra-VU). […] Emission was detected at 510 nm Excitation and emission slit widths were 5 nm Background calibration was performed as described by Jørgensen et al.

BKCaK+ channels = assay: BKCa K+ channel activity in Xenopus oocytes, two-electrode voltage clamp; format: cell-based; details: 2-APB 100 μM, BAPTA-AM, PMA 1 μM
Procedure, shortened: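 Two-electrode voltage clamp was performed at room temperature on stage V-VI Xenopus oocytes. Oocytes were perfused with Cl−/Ca2+-free solution, pH 7.4, containing 500 μM anthracene-9-carboxylic acid. Outward currents were recorded on 400 ms steps from −80 mV holding to +40 mV.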

endogenous CaCC = assay: Endogenous Ca2+-activated channel (CaCC) activation in Xenopus oocytes; format: cell-based, Xenopus laevis; details: Kil6425 10 μM; U73122 1 μM; 2-APB 100 μM; BAPTA 100 μM 3 h
[1] = tested on: NMDA receptors (NR1 and NR2); assay: NMDA receptor activity in Xenopus oocytes, two-electrode voltage clamp; format: cell-based; details: Kil6425 10 μM, 2-APB 100 μM, BAPTA 100 μM 3 h
Protocol: cDNAs of NMDA receptor subunits (NR1 and NR2) were employed (Zheng et al., J Neurosci. 17, 8676-8686, 1997). cDNAs (100 ng/40 nl) corresponding to respective NMDA receptor subunits (NR1 and NR2) were injected into animal or vegetal poles of oocytes by use of a […] (VWR Scientific, USA) and incubated for 4-5 days after injection (Zheng et al., J Neurosci. 17, 8676-8686, 1997).
Xenopus laevis frogs were obtained from Xenopus I (Ann Arbor, Mich.). Their care and handling were in accordance with the highest standards of institutional guidelines. To isolate oocytes, the frogs were operated on under anesthesia with an aerated solution of 3-aminobenzoic acid ethyl ester. Oocytes were separated by treatment with collagenase and agitation for two hours in a Ca^2+-free medium containing 82.5 mM NaCl, 2 mM KCl, 1 mM MgCl2, 5 mM HEPES, 2.5 mM sodium pyruvate, 100 units/ml penicillin and 100 μg/ml streptomycin.
Stage V-VI oocytes were collected and stored in ND96 (96 mM NaCl, 2 mM KCl, 1 mM MgCl2, 1.8 mM CaCl2, and 5 mM HEPES, pH 7.4) supplemented with 50 μg/ml gentamicin. This oocyte containing solution was maintained at 18° C. with continuous gentle shaking while the ND96 medium was changed to a fresh one every day.
Two-electrode voltage-clamp recordings were obtained from individual oocytes placed in a small Plexiglas net chamber (5 ml). Electrophysiological experiments were performed using microelectrodes filled with 3 M KCl (resistance of 0.2-0.7 MΩ) and an Oocyte Clamp amplifier (OC-725C; Warner Instrument, Hamden, Conn.). For physiological recordings of NMDA receptor activity, oocytes were first perfused with Mg^2+-free ND96 (mM: 96 NaOH, 2 KOH, 0.3 CaCl2, 5 HEPES pH 7.6 with methanesulfonic acid). Then, the oocytes were clamped at −60 mV holding potential, followed by recoding NMDA currents (induced by administering […]) (Zheng et al., J Neurosci. 17, 8676-8686, 1997; Chang and Kuo, J Neurosci. 28, 1546-1556, 2008).

LPA2 receptor = LPA2 receptor (Homo sapiens, UniProt Q9HBW0); assay: cell-based or functional assay
[2] = molecular target: T1, LPA3 receptor (wild-type) (human); assay: cell-based or functional assay
[3] = molecular target: LPA1 receptor endogenous to Xenopus oocytes (Xenopus laevis); assay: cell-based or functional assay
LPA5 receptor = LPA5 receptor (Homo sapiens, UniProt Q9H1C0); assay: cell-based or functional assay
LPA1 receptor = LPA1 receptor (Homo sapiens, UniProt Q92633); assay: cell-based or functional assay
LPA4 receptor = LPA4 receptor (Homo sapiens, UniProt Q99677); assay: cell-based or functional assay
Sequence of LPA4 receptor (Q99677 whole entry): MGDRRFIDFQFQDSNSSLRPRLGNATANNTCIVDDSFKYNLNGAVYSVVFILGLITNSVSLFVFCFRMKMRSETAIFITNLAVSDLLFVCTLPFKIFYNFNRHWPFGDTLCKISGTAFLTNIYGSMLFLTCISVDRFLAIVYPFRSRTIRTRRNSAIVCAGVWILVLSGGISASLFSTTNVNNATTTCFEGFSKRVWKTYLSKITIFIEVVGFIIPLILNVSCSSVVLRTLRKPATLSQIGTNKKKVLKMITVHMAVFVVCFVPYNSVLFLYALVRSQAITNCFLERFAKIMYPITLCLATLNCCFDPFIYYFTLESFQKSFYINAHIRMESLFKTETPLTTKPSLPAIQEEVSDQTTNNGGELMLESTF

Sequence of LPA1 receptor (Q92633 whole entry): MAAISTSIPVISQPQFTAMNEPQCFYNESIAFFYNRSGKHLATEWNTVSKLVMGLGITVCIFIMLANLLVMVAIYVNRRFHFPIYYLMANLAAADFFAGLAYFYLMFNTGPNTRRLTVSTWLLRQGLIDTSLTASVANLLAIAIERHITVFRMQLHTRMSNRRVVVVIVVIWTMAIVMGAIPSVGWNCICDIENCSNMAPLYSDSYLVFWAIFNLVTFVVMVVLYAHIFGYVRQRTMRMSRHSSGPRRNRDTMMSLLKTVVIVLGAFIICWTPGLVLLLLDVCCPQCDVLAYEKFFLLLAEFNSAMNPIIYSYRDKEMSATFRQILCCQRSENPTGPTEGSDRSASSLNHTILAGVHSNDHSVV
Sequence of LPA2 receptor (Q9HBW0 whole entry): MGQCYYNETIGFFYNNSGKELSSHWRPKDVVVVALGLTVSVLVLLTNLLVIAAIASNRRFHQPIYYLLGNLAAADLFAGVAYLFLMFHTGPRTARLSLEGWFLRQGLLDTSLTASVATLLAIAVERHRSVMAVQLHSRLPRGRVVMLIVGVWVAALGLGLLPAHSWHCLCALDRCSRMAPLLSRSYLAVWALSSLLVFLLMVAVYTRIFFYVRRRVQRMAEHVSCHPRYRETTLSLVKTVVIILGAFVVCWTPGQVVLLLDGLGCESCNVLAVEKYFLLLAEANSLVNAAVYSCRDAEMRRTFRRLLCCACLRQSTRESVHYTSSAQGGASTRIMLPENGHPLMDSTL
Sequence of LPA5 receptor (Q9H1C0 whole entry): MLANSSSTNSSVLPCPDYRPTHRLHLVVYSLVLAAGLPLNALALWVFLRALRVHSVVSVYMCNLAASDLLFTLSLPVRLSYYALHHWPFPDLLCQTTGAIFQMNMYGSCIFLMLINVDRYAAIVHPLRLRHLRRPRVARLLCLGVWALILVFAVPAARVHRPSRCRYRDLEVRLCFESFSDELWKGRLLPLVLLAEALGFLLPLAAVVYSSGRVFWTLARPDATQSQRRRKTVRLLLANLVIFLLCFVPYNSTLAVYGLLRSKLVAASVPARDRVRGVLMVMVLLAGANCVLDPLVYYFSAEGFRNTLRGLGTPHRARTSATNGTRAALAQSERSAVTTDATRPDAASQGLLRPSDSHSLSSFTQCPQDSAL

| Molecule | effect of pretreatment on gintonin-induced intracellular calcium increase (LPA receptor) | effect on gintonin-induced BKCaK+ channel activation (BKCaK+ channels; Kil6425 10 μM, U73122, U73343 1 μM) | effect on ginsenoside Rg3-induced BKCaK+ channel activity (BKCaK+ channels; U73122 1 μM) | effect on gintonin-induced CaCC activation (endogenous CaCC) | effect on NMDA-induced inward current ([1]; U73122 1 μM) | effect on gintonin-induced NMDA receptor activation ([1]; gintonin 1 μg/ml, U73122, U73343 1 μM, genistein 10 μM, PP2, PP3 30 μM) | EC50 of LPA receptor-mediated intracellular calcium increase in B103 cells (LPA2 receptor) [nM] | increase of intracellular calcium level in receptor-expressing B103 cells, gintonin 1 µg/ml (Fura-2AM) (LPA2 receptor) [nM] | EC50 of LPA receptor-mediated intracellular calcium increase in B103 cells [2] [nM] | increase of intracellular calcium level in receptor-expressing B103 cells, gintonin 1 µg/ml (Fura-2AM) [2] [nM] | ED50 of gintonin-induced NMDA receptor-mediated inward currents in NMDA receptor-expressing Xenopus oocytes [3] [µg/mL] | ED50 of gintonin-induced activation of BKCa K+ channels expressed in Xenopus oocytes [3] [µg/mL] | EC50 of LPA receptor-mediated intracellular calcium increase in B103 cells (LPA5 receptor) [nM] | increase of intracellular calcium level in receptor-expressing B103 cells, gintonin 1 µg/ml (Fura-2AM) (LPA5 receptor) [nM] | EC50 of LPA receptor-mediated intracellular calcium increase in B103 cells (LPA1 receptor) [nM] | increase of intracellular calcium level in receptor-expressing B103 cells, gintonin 1 µg/ml (Fura-2AM) (LPA1 receptor) [nM] | increase of intracellular calcium level in receptor-expressing B103 cells upon treatment with gintonin (Fura-2AM) (LPA4 receptor) [nM] |
| --- | --- | --- | --- | --- | --- | --- | --- | --- | --- | --- | --- | --- | --- | --- | --- | --- | --- |
| O=C(O)CN(CC(=O)O)c1ccccc1OCCOc1ccccc1N(CC(=O)O)CC(=O)O [BAPTA] | became invalid | a reduction in BKCaK^+ channel activation | not blocked | a reduction in gintonin-induced CaCC activation | normal NMDA-induced inward currents | reduction |  |  |  |  |  |  |  |  |  |  |  |
| B1 |  |  |  |  |  |  | 0.004 | 208 | 0.12 | 206 | 0.49 | 0.71 | 0.046 | 298 | 0.1 | 186 | 61.6 |
